Numbered stars: 1 amine (or outer) side, 2 acyl side, 3 side chain; on linkers, the order of the positions; unused ones are H or OH. Bridge positions count the residues as written; N and C are the ends. Square brackets hold non-standard residues; d marks the D form. Side chains are listed from the residue outwards. Ends that are not written are not given here. * marks the point of attachment. C20 diacid = O=C(O)CCCCCCCCCCCCCCCCCCC(=O)*; C18 diacid = O=C(O)CCCCCCCCCCCCCCCCC(=O)*; γGlu = O=C(O)[C@H](CCC(=O)[*:2])N[*:1]; αMeF = C[C@](N)(Cc1ccccc1)C(=O)O; Dab = NCC[C@H](N)C(=O)O; Aib = CC(C)(N)C(=O)O
T1: human amylin receptor (calcitonin receptor co-expressed with receptor activity modifying protein, RAMP3) (human, UniProt P30988 25-474; O60896 24-148)
T1 sequence (looked up) 1: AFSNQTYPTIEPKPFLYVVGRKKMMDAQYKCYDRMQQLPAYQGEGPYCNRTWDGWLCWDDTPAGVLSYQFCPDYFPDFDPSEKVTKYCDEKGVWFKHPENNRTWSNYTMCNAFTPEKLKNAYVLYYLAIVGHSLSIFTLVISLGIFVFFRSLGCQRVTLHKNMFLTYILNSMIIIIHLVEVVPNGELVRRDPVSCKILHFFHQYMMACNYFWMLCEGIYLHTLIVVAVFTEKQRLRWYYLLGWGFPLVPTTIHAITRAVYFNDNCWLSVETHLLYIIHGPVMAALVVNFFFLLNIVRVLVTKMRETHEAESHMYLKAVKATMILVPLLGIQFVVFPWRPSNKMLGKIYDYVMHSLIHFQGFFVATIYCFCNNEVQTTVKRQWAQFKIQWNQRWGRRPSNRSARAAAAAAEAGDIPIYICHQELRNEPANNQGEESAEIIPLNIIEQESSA
T1 sequence (looked up) 2: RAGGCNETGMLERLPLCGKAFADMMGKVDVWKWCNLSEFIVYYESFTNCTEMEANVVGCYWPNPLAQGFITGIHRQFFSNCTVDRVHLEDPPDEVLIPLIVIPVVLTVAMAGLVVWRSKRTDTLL

T2: human calcitonin receptor (human, UniProt P30988 25-474)
T2 sequence (looked up): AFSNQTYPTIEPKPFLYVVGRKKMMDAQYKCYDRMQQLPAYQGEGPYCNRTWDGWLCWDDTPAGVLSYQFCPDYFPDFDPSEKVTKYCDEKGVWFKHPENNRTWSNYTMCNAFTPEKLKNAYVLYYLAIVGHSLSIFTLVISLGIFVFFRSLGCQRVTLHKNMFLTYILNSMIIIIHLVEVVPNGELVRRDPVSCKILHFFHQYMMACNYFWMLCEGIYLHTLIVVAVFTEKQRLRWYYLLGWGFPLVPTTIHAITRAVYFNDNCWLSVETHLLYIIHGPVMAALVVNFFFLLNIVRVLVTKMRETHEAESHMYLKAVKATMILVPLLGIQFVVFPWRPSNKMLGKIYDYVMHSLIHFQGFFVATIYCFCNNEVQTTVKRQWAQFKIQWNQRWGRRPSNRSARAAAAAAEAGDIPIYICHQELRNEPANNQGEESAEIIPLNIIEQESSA

B1: Peptide 123 (SEQ ID NO: 123) (peptide)
peptide: K([γGlu-γGlu-C20 diacid])CNTATCATQRLANFLVHSS[Aib]NFPAILSPT[Dab]VGSNTY-NH2
modifications: disulfide 2-7; N-terminus assumed
SMILES: CC[C@H](C)[C@H](NC(=O)[C@H](C)NC(=O)[C@@H]1CCCN1C(=O)[C@H](Cc1ccccc1)NC(=O)[C@H](CC(N)=O)NC(=O)C(C)(C)NC(=O)[C@H](CO)NC(=O)[C@H](CO)NC(=O)[C@H](Cc1c[nH]cn1)NC(=O)[C@@H](NC(=O)[C@H](CC(C)C)NC(=O)[C@H](Cc1ccccc1)NC(=O)[C@H](CC(N)=O)NC(=O)[C@H](C)NC(=O)[C@H](CC(C)C)NC(=O)[C@H](CCCNC(=N)N)NC(=O)[C@H](CCC(N)=O)NC(=O)[C@@H](NC(=O)[C@H](C)NC(=O)[C@@H]1CSSC[C@H](NC(=O)[C@@H](N)CCCCNC(=O)CC[C@H](NC(=O)CC[C@H](NC(=O)CCCCCCCCCCCCCCCCCCC(=O)O)C(=O)O)C(=O)O)C(=O)N[C@@H](CC(N)=O)C(=O)N[C@@H]([C@@H](C)O)C(=O)N[C@@H](C)C(=O)N[C@@H]([C@@H](C)O)C(=O)N1)[C@@H](C)O)C(C)C)C(=O)N[C@@H](CC(C)C)C(=O)N[C@@H](CO)C(=O)N1CCC[C@H]1C(=O)N[C@H](C(=O)N[C@@H](CCN)C(=O)N[C@H](C(=O)NCC(=O)N[C@@H](CO)C(=O)N[C@@H](CC(N)=O)C(=O)N[C@H](C(=O)N[C@@H](Cc1ccc(O)cc1)C(N)=O)[C@@H](C)O)C(C)C)[C@@H](C)O
B2: Peptide 127 (SEQ ID NO: 127) (peptide)
peptide: K([γGlu-γGlu-C18 diacid])CNTATCATQRLANFL[Aib]HSSNNFGPILPPTNVGSNTY-NH2
modifications: disulfide 2-7; N-terminus assumed
SMILES: CC[C@H](C)[C@H](NC(=O)[C@@H]1CCCN1C(=O)CNC(=O)[C@H](Cc1ccccc1)NC(=O)[C@H](CC(N)=O)NC(=O)[C@H](CC(N)=O)NC(=O)[C@H](CO)NC(=O)[C@H](CO)NC(=O)[C@H](Cc1c[nH]cn1)NC(=O)C(C)(C)NC(=O)[C@H](CC(C)C)NC(=O)[C@H](Cc1ccccc1)NC(=O)[C@H](CC(N)=O)NC(=O)[C@H](C)NC(=O)[C@H](CC(C)C)NC(=O)[C@H](CCCNC(=N)N)NC(=O)[C@H](CCC(N)=O)NC(=O)[C@@H](NC(=O)[C@H](C)NC(=O)[C@@H]1CSSC[C@H](NC(=O)[C@@H](N)CCCCNC(=O)CC[C@H](NC(=O)CC[C@H](NC(=O)CCCCCCCCCCCCCCCCC(=O)O)C(=O)O)C(=O)O)C(=O)N[C@@H](CC(N)=O)C(=O)N[C@@H]([C@@H](C)O)C(=O)N[C@@H](C)C(=O)N[C@@H]([C@@H](C)O)C(=O)N1)[C@@H](C)O)C(=O)N[C@@H](CC(C)C)C(=O)N1CCC[C@H]1C(=O)N1CCC[C@H]1C(=O)N[C@H](C(=O)N[C@@H](CC(N)=O)C(=O)N[C@H](C(=O)NCC(=O)N[C@@H](CO)C(=O)N[C@@H](CC(N)=O)C(=O)N[C@H](C(=O)N[C@@H](Cc1ccc(O)cc1)C(N)=O)[C@@H](C)O)C(C)C)[C@@H](C)O
B3: Peptide 124 (SEQ ID NO: 124) (peptide)
peptide: K([γGlu-γGlu-C18 diacid])CNTATCATQRLANFLVHSS[Aib]NFPAILSPTNVGS[Dab]TY-NH2
modifications: disulfide 2-7; N-terminus assumed
SMILES: CC[C@H](C)[C@H](NC(=O)[C@H](C)NC(=O)[C@@H]1CCCN1C(=O)[C@H](Cc1ccccc1)NC(=O)[C@H](CC(N)=O)NC(=O)C(C)(C)NC(=O)[C@H](CO)NC(=O)[C@H](CO)NC(=O)[C@H](Cc1c[nH]cn1)NC(=O)[C@@H](NC(=O)[C@H](CC(C)C)NC(=O)[C@H](Cc1ccccc1)NC(=O)[C@H](CC(N)=O)NC(=O)[C@H](C)NC(=O)[C@H](CC(C)C)NC(=O)[C@H](CCCNC(=N)N)NC(=O)[C@H](CCC(N)=O)NC(=O)[C@@H](NC(=O)[C@H](C)NC(=O)[C@@H]1CSSC[C@H](NC(=O)[C@@H](N)CCCCNC(=O)CC[C@H](NC(=O)CC[C@H](NC(=O)CCCCCCCCCCCCCCCCC(=O)O)C(=O)O)C(=O)O)C(=O)N[C@@H](CC(N)=O)C(=O)N[C@@H]([C@@H](C)O)C(=O)N[C@@H](C)C(=O)N[C@@H]([C@@H](C)O)C(=O)N1)[C@@H](C)O)C(C)C)C(=O)N[C@@H](CC(C)C)C(=O)N[C@@H](CO)C(=O)N1CCC[C@H]1C(=O)N[C@H](C(=O)N[C@@H](CC(N)=O)C(=O)N[C@H](C(=O)NCC(=O)N[C@@H](CO)C(=O)N[C@@H](CCN)C(=O)N[C@H](C(=O)N[C@@H](Cc1ccc(O)cc1)C(N)=O)[C@@H](C)O)C(C)C)[C@@H](C)O
B4: Peptide 126 (SEQ ID NO: 126) (peptide)
peptide: K([γGlu-C18 diacid])KCNTATCATQRLANFL[Aib]HSS[Dab]NFGPILPPTNVGSNTY-NH2
modifications: disulfide 3-8; N-terminus assumed
SMILES: CC[C@H](C)[C@H](NC(=O)[C@@H]1CCCN1C(=O)CNC(=O)[C@H](Cc1ccccc1)NC(=O)[C@H](CC(N)=O)NC(=O)[C@H](CCN)NC(=O)[C@H](CO)NC(=O)[C@H](CO)NC(=O)[C@H](Cc1c[nH]cn1)NC(=O)C(C)(C)NC(=O)[C@H](CC(C)C)NC(=O)[C@H](Cc1ccccc1)NC(=O)[C@H](CC(N)=O)NC(=O)[C@H](C)NC(=O)[C@H](CC(C)C)NC(=O)[C@H](CCCNC(=N)N)NC(=O)[C@H](CCC(N)=O)NC(=O)[C@@H](NC(=O)[C@H](C)NC(=O)[C@@H]1CSSC[C@H](NC(=O)[C@H](CCCCN)NC(=O)[C@@H](N)CCCCNC(=O)CC[C@H](NC(=O)CCCCCCCCCCCCCCCCC(=O)O)C(=O)O)C(=O)N[C@@H](CC(N)=O)C(=O)N[C@@H]([C@@H](C)O)C(=O)N[C@@H](C)C(=O)N[C@@H]([C@@H](C)O)C(=O)N1)[C@@H](C)O)C(=O)N[C@@H](CC(C)C)C(=O)N1CCC[C@H]1C(=O)N1CCC[C@H]1C(=O)N[C@H](C(=O)N[C@@H](CC(N)=O)C(=O)N[C@H](C(=O)NCC(=O)N[C@@H](CO)C(=O)N[C@@H](CC(N)=O)C(=O)N[C@H](C(=O)N[C@@H](Cc1ccc(O)cc1)C(N)=O)[C@@H](C)O)C(C)C)[C@@H](C)O
B5: Peptide 125 (SEQ ID NO: 125) (peptide)
peptide: K([γGlu-γGlu-C20 diacid])CNTATCATQRLANFLVHSS[Aib]NFPAILSPTNVGS[Dab]TY-NH2
modifications: disulfide 2-7; N-terminus assumed
SMILES: CC[C@H](C)[C@H](NC(=O)[C@H](C)NC(=O)[C@@H]1CCCN1C(=O)[C@H](Cc1ccccc1)NC(=O)[C@H](CC(N)=O)NC(=O)C(C)(C)NC(=O)[C@H](CO)NC(=O)[C@H](CO)NC(=O)[C@H](Cc1c[nH]cn1)NC(=O)[C@@H](NC(=O)[C@H](CC(C)C)NC(=O)[C@H](Cc1ccccc1)NC(=O)[C@H](CC(N)=O)NC(=O)[C@H](C)NC(=O)[C@H](CC(C)C)NC(=O)[C@H](CCCNC(=N)N)NC(=O)[C@H](CCC(N)=O)NC(=O)[C@@H](NC(=O)[C@H](C)NC(=O)[C@@H]1CSSC[C@H](NC(=O)[C@@H](N)CCCCNC(=O)CC[C@H](NC(=O)CC[C@H](NC(=O)CCCCCCCCCCCCCCCCCCC(=O)O)C(=O)O)C(=O)O)C(=O)N[C@@H](CC(N)=O)C(=O)N[C@@H]([C@@H](C)O)C(=O)N[C@@H](C)C(=O)N[C@@H]([C@@H](C)O)C(=O)N1)[C@@H](C)O)C(C)C)C(=O)N[C@@H](CC(C)C)C(=O)N[C@@H](CO)C(=O)N1CCC[C@H]1C(=O)N[C@H](C(=O)N[C@@H](CC(N)=O)C(=O)N[C@H](C(=O)NCC(=O)N[C@@H](CO)C(=O)N[C@@H](CCN)C(=O)N[C@H](C(=O)N[C@@H](Cc1ccc(O)cc1)C(N)=O)[C@@H](C)O)C(C)C)[C@@H](C)O

Experiments:
[1] = molecular target: T1, human amylin receptor (calcitonin …); test: cell-based or functional assay
[2] = molecular target: T2, human calcitonin receptor; test: cell-based or functional assay

Binder	EC50 (cAMP production) [1] [pM]	Ratio (EC50 hCTR / EC50 hAMYR3) [1]	EC50 (cAMP production) [2] [nM]
K([γGlu-C18 diacid])KCNTATCATQRLANFLVHSSNN[αMeF]GPILPPTNVGSNTY-NH2 (disulfide 3-8) [Peptide 14 (SEQ ID NO: 14)]	220	6	1.35
B1	873	5	4.79
B2	364	19.6	7.13
B3	1130	6	6.63
B4	445	19	8.45
B5	1200	8	10.2

— patent US20220204580A1 (AstraZeneca / MedImmune, published 2022)
